Data from patent publication US20260116949A1.

Target: endogenous TCRs of un-transduced activated human T cells (Untd)
Assay: flow cytometry, FITC-anti-human TCR Vβ13.1 staining of un-transduced activated human T cells

% of cells positive for staining: 3.9%
Substance: FITC anti-human TCR Vβ13.1 Antibody (EBIOSCIENCE, …X, THERMO FISHER …)
